Reference: patent US20020146411A1, “Anticoagulant agents useful in treatment of thrombosis” (SmithKline Beecham Corporation, priority 1996, published 2002)

Columns and labels:
human Factor IX (human) = human Factor IX (human) (UniProt P00740); assay: cell-based or functional assay
[1] = target: recombinant human Factor IX (rhFIX, Genetics Institute) (human) (UniProt P00740); assay: titration calorimetry
[2] = target: recombinant human Factor IX (rhFIX, Genetics Institute) (human) (UniProt P00740); assay: biosensor (BIAcore)
[3] = target: recombinant human Factor IX (rhFIX, Genetics Institute) (human) (UniProt P00740); assay: BIAcore, calculated from kdiss and kass
[4] = target: recombinant human Factor IX (rhFIX, Genetics Institute) (human) (UniProt P00740); assay: titration calorimetry, 37° C., 10 mM CaCl2
[5] = target: recombinant human Factor IX (rhFIX, Genetics Institute) (human) (UniProt P00740); assay: isothermal titration calorimetry, 25° C.
[6] = target: recombinant human Factor IX (rhFIX, Genetics Institute) (human) (UniProt P00740); assay: titration calorimetry, 25° C. (calculated from the van't Hoff equation), 10 mM CaCl2
[7] = target: recombinant human Factor IX (rhFIX, Genetics Institute) (human) (UniProt P00740); assay: titration microcalorimetry, 106 uM FIX injected into 2 uM mAb
[8] = target: recombinant human Factor IX (rhFIX, Genetics Institute) (human) (UniProt P00740); assay: BIAcore, antibody captured on immobilised protein A, rhFIX at 49 nM, 5 mM Ca2+
[9] = target: recombinant human Factor IX (rhFIX, Genetics Institute) (human) (UniProt P00740); assay: isothermal titration calorimetry
[10] = target: recombinant human Factor IX (rhFIX, Genetics Institute) (human) (UniProt P00740); assay: BIAcore kinetics of Factor IX binding
[11] = target: recombinant human Factor IX (rhFIX, Genetics Institute) (human) (UniProt P00740); assay: BIAcore, calculated

Chain of recombinant human Factor IX (rhFIX, Genetics Institute) (human) (P00740 47-461 limits assumed): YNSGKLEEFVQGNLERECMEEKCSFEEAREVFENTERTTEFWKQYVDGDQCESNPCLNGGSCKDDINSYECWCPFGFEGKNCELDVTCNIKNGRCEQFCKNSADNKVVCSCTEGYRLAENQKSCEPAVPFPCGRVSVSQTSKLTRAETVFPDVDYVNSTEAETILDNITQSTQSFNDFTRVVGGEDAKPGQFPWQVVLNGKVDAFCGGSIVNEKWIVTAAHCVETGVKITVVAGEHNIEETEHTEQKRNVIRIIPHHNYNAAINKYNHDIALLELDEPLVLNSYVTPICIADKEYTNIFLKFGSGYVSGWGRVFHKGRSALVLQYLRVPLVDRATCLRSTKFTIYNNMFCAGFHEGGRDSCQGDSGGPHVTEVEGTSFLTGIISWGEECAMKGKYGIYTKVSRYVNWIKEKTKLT
Chain of human Factor IX (human) (P00740 47-461 limits assumed): as above

Row | Molar Binding Ratio FIX/mAb [1] | Kd [4] | Kd [6] | koff [10] | kon [10] | Kd [11] | Binder | also measured
1 | 1.9 FIX/mAb | 12 nM | 6 nM | 0.0028 s⁻¹ | 650000 M⁻¹ s⁻¹ | 3.7 to 5.1 nM | humanized anti-Factor IX monoclonal antibody SB 249413 (antibody, V domains shown) VH: QVQLVQSGSELKKPGASVKVSCKASGYTFTNYGMNWVRQAPGQGLEWMGWINTRNGKSTYVDDFKGRFVFSLDTSVSTAYLQISSLKADDTAVYYCAREGNMDGYFPFTYWGQGTLVTVSS VL: EIVLTQSPATLSLSPGERATLSCRASSSVNYMHWYQQRPGQAPRLLIYATSNLASGIPARFSGSGSGTDFTLTISSLEPEDFAVYYCQQWSINPRTFGGGTKVEIKR | 
2 |  |  |  | 0.00099 s⁻¹ | 920000 M⁻¹ s⁻¹ | 1.1 nM | humanized anti-Factor IX monoclonal antibody SB 257731 (antibody, V domains shown) VH: QVQLVQSGSELKKPGASVKVSCKASGYTFTNYGMNWVRQAPGQGLKWMGWINTRNGKSTYVDDFKGRFVFSLDSSVSTAYLQISSLKADDTAVYYCTREGNMDGYFPFTYWGQGTLVTVSS VL: QIVLTQSPATLSLSPGERATLSCRASSSVNYMHWYQQRPGQAPKPWIYATSNLASGVPARFSGSGSGTDYTLTISSLEPEDFAVYYCQQWSINPRTFGGGTKVEIK | 

The remaining lines, values behind:

Row | Binder | Molar Binding Ratio FIX/mAb [1] | Kd [4] | Kd [6] | koff [10] | kon [10] | Kd [11] | also measured
3 | murine anti-Factor IX monoclonal antibody BC2 (antibody, mouse IgG2a, V domains shown) VH: QIQLVQSGPELKKPGETVKISCKASGYTFTNYGMNWVKQAPGKGLKWMGWINTRNGKSTYVDDFKGRFAFSLESSASTANLQIDNLKDEDTATYFCTREGNMDGYFPFTYWGQGTLVTVSA VL: QIVLSQSPAILSASPGEKVTMTCRASSSVNYMHWYQQKPGSSPKPWIYATSNLASGVPARFSGSGSGTSYSLTISRVEAEDAATYYCQQWSINPRTFGGGTKLEIKR |  |  |  |  |  |  | IC50, nM (aPTT of human plasma) (human Factor IX (human)): 50 nM; aPTT at saturating antibody (human Factor IX (human)): 90 s; aPTTmax / aPTTnormal × 100 % (human Factor IX (human)): 350%
4 | humanized anti-Factor IX monoclonal antibody SB 249417 (antibody, V domains shown) VH: QVQLVQSGSELKKPGASVKVSCKASGYTFTNYGMNWVRQAPGQGLKWMGWINTRNGKSTYVDDFKGRFVFSLDSSVSTAYLQISSLKADDTAVYYCTREGNMDGYFPFTYWGQGTLVTVSS VL: QIVLTQSPSSLSASVGDRVTITCRASSSVNYMHWYQQKPGKAPKPWIYATSNLASGVPSRFSGSGSGTDYTFTISSLQPEDIATYYCQQWSINPRTFGQGTKVEIKR | 1.5 FIX/mAb | 12 nM | 4 nM |  |  |  | Kd [2]: 2 nM; koff [2]: 0.0004 s⁻¹; kon [2]: 200000 M⁻¹ s⁻¹; Kd [3]: 1.9 nM; Kd [5]: 4 nM; molar binding ratio at the equivalence point [7]: 2 FIX per mAb; koff [8]: 0.00041 s⁻¹; kon [8]: 200000 M⁻¹ s⁻¹; Stoichiometry of Factor IX Binding (moles Factor IX per mole mAb) [9]: 1.5
5 | humanized anti-Factor IX monoclonal antibody SB 249415 (antibody, V domains shown) VH: QVQLVQSGSELKKPGASVKVSCKASGYTFTNYGMNWVRQAPGQGLKWMGWINTRNGKSTYVDDFKGRFVFSLDSSVSTAYLQISSLKADDTAVYYCTREGNMDGYFPFTYWGQGTLVTVSS VL: EIVLTQSPATLSLSPGERATLSCRASSSVNYMHWYQQRPGQAPKPWIYATSNLASGVPARFSGSGSGTDFTLTISSLEPEDFAVYYCQQWSINPRTFGGGTKVEIKR | 1.7 FIX/mAb | 7 nM | 3 nM | 0.00018 s⁻¹ | 750000 M⁻¹ s⁻¹ | 1.1 to 2.3 nM | 
6 | humanized anti-Factor IX monoclonal antibody SB 257732 (antibody, V domains shown) VH: QIQLVQSGSELKKPGASVKVSCKASGYTFTNYGMNWVRQAPGQGLEWMGWINTRNGKSTYVDDFKGRFVFSLDTSVSTAYLQISSLKAEDTAVYFCTREGNMDGYFPFTYWGQGTLVTVSS VL: QIVLTQSPSSLSASVGDRVTITCRASSSVNYMHWYQQKPGKAPKPWIYATSNLASGVPSRFSGSGSGTDYTLTISSLQPEDFATYYCQQWSINPRTFGGGTKLEIKR | 1.8 FIX/mAb | 9 nM | 4 nM | 0.0012 s⁻¹ | 1.1e+06 M⁻¹ s⁻¹ | 1.5 nM | 
7 | humanized anti-Factor IX monoclonal antibody SB 249416 (antibody, V domains shown) VH: QVQLVQSGSELKKPGASVKVSCKASGYTFTNYGMNWVRQAPGQGLKWMGWINTRNGKSTYVDDFKGRFVFSLDSSVSTAYLQISSLKADDTAVYYCTREGNMDGYFPFTYWGQGTLVTVSS VL: EIVLTQSPATLSLSPGERATLSCRASSSVNYMHWYQQRPGQAPKPWIYATSNLASGVPARFSGSGSGTDYTLTISSLEPEDFAVYYCQQWSINPRTFGGGTKVEIKR |  |  |  | 0.00041 s⁻¹ | 520000 M⁻¹ s⁻¹ | 0.8 nM | 
